{
  "source": "paper PMC10786891",
  "about": "“Massively parallel profiling of RNA-targeting CRISPR-Cas13d”",
  "binders": {"B1": {"name": "target 2 MT 5'PFS AUU 3'PFS AAA (mixed)", "RNA 1": "CACCCGUGCAAAAUUGCAGGGGUCUAAAACCUUCUCCAAAUUGUUUCAUCCU", "RNA 2": "GGGAAUGGAUCCACAUCUACGAAUUCAUUAGGAUGAAACAAUUUGGAGAAGAAAAGAUCGGAAGAGCACACGU"}, "B2": {"name": "target 2 MT 5'PFS AUU 3'PFS UAU (mixed)", "RNA 1": "B1 RNA 1", "RNA 2": "B1 RNA 2 with A52U, A54U"}, "B3": {"name": "target 1 insA 3' of 8,insA 3' of 8 (mixed)", "RNA 1": "CACCCGUGCAAAAAUGCAGGGGUCUAAAACUGAGCGGAUAACCUCUCUAUGG", "RNA 2": "GGGAAUGGAUCCACAUCUACGAAUUCGUACCAUAGAGAGGUUAUAACCGCUCACCGAGAUCGGAAGAGCACACGU"}, "B4": {"name": "target 1 A1C,C2G (mixed)", "RNA 1": "B3 RNA 1", "RNA 2": "GGGAAUGGAUCCACAUCUACGAAUUCGUACCAUAGAGAGGUUAUCCGCUGCCCGAGAUCGGAAGAGCACACGU"}, "B5": {"name": "target 2 MT 5'PFS AGA 3'PFS UGU (mixed)", "RNA 1": "B1 RNA 1", "RNA 2": "B1 RNA 2 with U28G, U29A, A52U, A53G, A54U"}, "B6": {"name": "target 2 MT 5'PFS AUU 3'PFS AAG (mixed)", "RNA 1": "B1 RNA 1", "RNA 2": "B1 RNA 2 with A54G"}, "B7": {"name": "target 2 MT 5'PFS AUG 3'PFS UUU (mixed)", "RNA 1": "B1 RNA 1", "RNA 2": "B1 RNA 2 with U29G, A52U, A53U, A54U"}, "B8": {"name": "target 2 MT 5'PFS GGU 3'PFS CAU (mixed)", "RNA 1": "B1 RNA 1", "RNA 2": "B1 RNA 2 with A27G, U28G, A52C, A54U"}, "B9": {"name": "target 2 MT 5'PFS CUA 3'PFS UCC (mixed)", "RNA 1": "B1 RNA 1", "RNA 2": "B1 RNA 2 with A27C, U29A, A52U, A53C, A54C"}, "B10": {"name": "target 2 MT 5'PFS CUA 3'PFS UCA (mixed)", "RNA 1": "B1 RNA 1", "RNA 2": "B1 RNA 2 with A27C, U29A, A52U, A53C"}, "B11": {"name": "target 2 MT 5'PFS GGU 3'PFS CAC (mixed)", "RNA 1": "B1 RNA 1", "RNA 2": "B1 RNA 2 with A27G, U28G, A52C, A54C"}, "B12": {"name": "target 2 MT 5'PFS GGU 3'PFS CAA (mixed)", "RNA 1": "B1 RNA 1", "RNA 2": "B1 RNA 2 with A27G, U28G, A52C"}, "B13": {"name": "target 2 MT 5'PFS GGU 3'PFS CAG (mixed)", "RNA 1": "B1 RNA 1", "RNA 2": "B1 RNA 2 with A27G, U28G, A52C, A54G"}, "B14": {"name": "target 2 MT 5'PFS GCA 3'PFS UUA (mixed)", "RNA 1": "B1 RNA 1", "RNA 2": "B1 RNA 2 with A27G, U28C, U29A, A52U, A53U"}, "B15": {"name": "target 1 C2G (mixed)", "RNA 1": "B3 RNA 1", "RNA 2": "B4 RNA 2 with C51A"}, "B16": {"name": "target 2 MT 5'PFS CUA 3'PFS UCU (mixed)", "RNA 1": "B1 RNA 1", "RNA 2": "B1 RNA 2 with A27C, U29A, A52U, A53C, A54U"}, "B17": {"name": "target 2 MT 5'PFS UGG 3'PFS ACG (mixed)", "RNA 1": "B1 RNA 1", "RNA 2": "B1 RNA 2 with A27U, U28G, U29G, A53C, A54G"}, "B18": {"name": "target 2 MT 5'PFS UGG 3'PFS ACC (mixed)", "RNA 1": "B1 RNA 1", "RNA 2": "B1 RNA 2 with A27U, U28G, U29G, A53C, A54C"}, "B19": {"name": "target 2 MT 5'PFS UGG 3'PFS ACA (mixed)", "RNA 1": "B1 RNA 1", "RNA 2": "B1 RNA 2 with A27U, U28G, U29G, A53C"}, "B20": {"name": "target 2 MT 5'PFS CUC 3'PFS CCA (mixed)", "RNA 1": "B1 RNA 1", "RNA 2": "B1 RNA 2 with A27C, U29C, A52C, A53C"}, "B21": {"name": "target 2 MT 5'PFS CUC 3'PFS CCG (mixed)", "RNA 1": "B1 RNA 1", "RNA 2": "B1 RNA 2 with A27C, U29C, A52C, A53C, A54G"}, "B22": {"name": "target 2 MT 5'PFS UGG 3'PFS ACU (mixed)", "RNA 1": "B1 RNA 1", "RNA 2": "B1 RNA 2 with A27U, U28G, U29G, A53C, A54U"}, "B23": {"name": "target 2 MT 5'PFS CUC 3'PFS UUG (mixed)", "RNA 1": "B1 RNA 1", "RNA 2": "B1 RNA 2 with A27C, U29C, A52U, A53U, A54G"}, "B24": {"name": "target 2 MT 5'PFS CUC 3'PFS CCU (mixed)", "RNA 1": "B1 RNA 1", "RNA 2": "B1 RNA 2 with A27C, U29C, A52C, A53C, A54U"}, "B25": {"name": "target 2 MT 5'PFS AGG 3'PFS CAU (mixed)", "RNA 1": "B1 RNA 1", "RNA 2": "B1 RNA 2 with U28G, U29G, A52C, A54U"}, "B26": {"name": "target 1 insU 3' of 12,insC 3' of 1 (mixed)", "RNA 1": "B3 RNA 1", "RNA 2": "GGGAAUGGAUCCACAUCUACGAAUUCGUACCAUAGAGAGGUUUAUCCGCUCACCCGAGAUCGGAAGAGCACACGU"}, "B27": {"name": "target 2 MT 5'PFS GCC 3'PFS UAU (mixed)", "RNA 1": "B1 RNA 1", "RNA 2": "B1 RNA 2 with A27G, U28C, U29C, A52U, A54U"}, "B28": {"name": "target 2 MT 5'PFS UGC 3'PFS UUC (mixed)", "RNA 1": "B1 RNA 1", "RNA 2": "B1 RNA 2 with A27U, U28G, U29C, A52U, A53U, A54C"}, "B29": {"name": "target 2 MT 5'PFS UGC 3'PFS UUA (mixed)", "RNA 1": "B1 RNA 1", "RNA 2": "B1 RNA 2 with A27U, U28G, U29C, A52U, A53U"}, "B30": {"name": "target 2 MT 5'PFS CUU 3'PFS UUU (mixed)", "RNA 1": "B1 RNA 1", "RNA 2": "B1 RNA 2 with A27C, A52U, A53U, A54U"}, "B31": {"name": "target 2 MT 5'PFS GCC 3'PFS UAA (mixed)", "RNA 1": "B1 RNA 1", "RNA 2": "B1 RNA 2 with A27G, U28C, U29C, A52U"}, "B32": {"name": "target 2 MT 5'PFS GCC 3'PFS UAC (mixed)", "RNA 1": "B1 RNA 1", "RNA 2": "B1 RNA 2 with A27G, U28C, U29C, A52U, A54C"}, "B33": {"name": "target 2 MT 5'PFS ACA 3'PFS AUU (mixed)", "RNA 1": "B1 RNA 1", "RNA 2": "B1 RNA 2 with U28C, U29A, A53U, A54U"}, "B34": {"name": "target 2 MT 5'PFS GCC 3'PFS UAG (mixed)", "RNA 1": "B1 RNA 1", "RNA 2": "B1 RNA 2 with A27G, U28C, U29C, A52U, A54G"}, "B35": {"name": "target 2 MT 5'PFS CUU 3'PFS UUG (mixed)", "RNA 1": "B1 RNA 1", "RNA 2": "B1 RNA 2 with A27C, A52U, A53U, A54G"}, "B36": {"name": "target 2 MT 5'PFS CUU 3'PFS UUA (mixed)", "RNA 1": "B1 RNA 1", "RNA 2": "B1 RNA 2 with A27C, A52U, A53U"}, "B37": {"name": "target 1 insU 3' of 20,insG 3' of 9 (mixed)", "RNA 1": "B3 RNA 1", "RNA 2": "GGGAAUGGAUCCACAUCUACGAAUUCGUACCAUUAGAGAGGUUAGUCCGCUCACCGAGAUCGGAAGAGCACACGU"}},
  "note": "Changes are numbered by the printed parent chain. Names and notes keep the numbering of the source.",
  "data": [
    {"target": "T1, EsCas13d, nuclease-dead (Eubacterium siraeum, UniProt B0MS50, R295A;H300A;R849A;H854A)", "T1 sequence": "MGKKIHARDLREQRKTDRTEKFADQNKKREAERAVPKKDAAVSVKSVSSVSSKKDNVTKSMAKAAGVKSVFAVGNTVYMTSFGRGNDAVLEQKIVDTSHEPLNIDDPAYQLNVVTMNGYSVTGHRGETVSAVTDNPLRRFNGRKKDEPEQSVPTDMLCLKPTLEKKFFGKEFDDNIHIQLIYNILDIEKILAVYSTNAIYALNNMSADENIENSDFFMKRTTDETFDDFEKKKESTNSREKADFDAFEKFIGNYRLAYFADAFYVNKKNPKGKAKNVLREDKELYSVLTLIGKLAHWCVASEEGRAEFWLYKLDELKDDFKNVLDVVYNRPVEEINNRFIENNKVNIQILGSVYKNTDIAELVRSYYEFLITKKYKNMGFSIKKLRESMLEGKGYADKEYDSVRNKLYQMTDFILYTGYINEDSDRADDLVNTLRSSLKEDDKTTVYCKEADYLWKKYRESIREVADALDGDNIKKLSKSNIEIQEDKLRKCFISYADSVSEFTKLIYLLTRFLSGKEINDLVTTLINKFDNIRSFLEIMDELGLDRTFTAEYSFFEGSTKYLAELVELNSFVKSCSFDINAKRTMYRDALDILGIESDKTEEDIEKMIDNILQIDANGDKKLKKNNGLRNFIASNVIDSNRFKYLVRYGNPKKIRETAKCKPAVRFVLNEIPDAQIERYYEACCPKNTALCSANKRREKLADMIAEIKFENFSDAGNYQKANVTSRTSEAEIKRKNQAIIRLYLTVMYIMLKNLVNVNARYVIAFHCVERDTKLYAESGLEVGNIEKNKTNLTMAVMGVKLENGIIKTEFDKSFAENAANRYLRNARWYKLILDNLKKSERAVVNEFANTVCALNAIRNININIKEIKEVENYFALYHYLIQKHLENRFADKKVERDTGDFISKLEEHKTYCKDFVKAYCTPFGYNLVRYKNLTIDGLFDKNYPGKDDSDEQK", "test": "crRNA (strand 1, pre-loaded); Mg2+; 40 mM Tris-HCl pH 7.5, 150 mM NaCl, 6 mM MgCl2, 1 mM DTT, 0.1% Tween-20, 0.2 mg/ml BSA; 25 C; 10 min per concentration, then washed", "conditions": "tags: His6-TwinStrep-SUMO cleaved; N-terminal SNAP kept (SNAP-Surface 488); label: 3' end held by stalled T7 RNA polymerase", "units": {"Kd": "nM"}, "values": [
      {"binder": "B1", "Kd": "4.7 ± 0.5"},
      {"binder": "B2", "Kd": "5.6 ± 0.4"},
      {"binder": "B3", "Kd": "32.2 ± 3.2"},
      {"binder": "B4", "Kd": "35 ± 4"},
      {"binder": "B5", "Kd": "9.5 ± 1.2"},
      {"binder": "B6", "Kd": "5.6 ± 0.6"},
      {"binder": "B7", "Kd": "25 ± 6"},
      {"binder": "B8", "Kd": "14.9 ± 2.3"},
      {"binder": "B9", "Kd": "3.4 ± 0.5"},
      {"binder": "B10", "Kd": "2.17 ± 0.35"},
      {"binder": "B11", "Kd": "14.8 ± 2.2"},
      {"binder": "B12", "Kd": "8.6 ± 1.4"},
      {"binder": "B13", "Kd": "13 ± 1"},
      {"binder": "B14", "Kd": "17 ± 4"},
      {"binder": "B15", "Kd": "8.3 ± 0.6"},
      {"binder": "B16", "Kd": "3.6 ± 0.4"},
      {"binder": "B17", "Kd": "5.5 ± 0.4"},
      {"binder": "B18", "Kd": "27 ± 6"},
      {"binder": "B19", "Kd": "6 ± 0.7"},
      {"binder": "B20", "Kd": "4.8 ± 0.7"},
      {"binder": "B21", "Kd": "2.21 ± 0.24"},
      {"binder": "B22", "Kd": "9.5 ± 1.3"},
      {"binder": "B23", "Kd": "3.2 ± 0.5"},
      {"binder": "B24", "Kd": "23 ± 7"},
      {"binder": "B25", "Kd": "4.6 ± 0.6"},
      {"binder": "B26", "Kd": "8.9 ± 0.7"},
      {"binder": "B27", "Kd": "22 ± 4"},
      {"binder": "B28", "Kd": "~40"},
      {"binder": "B29", "Kd": "~27"},
      {"binder": "B30", "Kd": "8.4 ± 0.7"},
      {"binder": "B31", "Kd": "10.9 ± 2.7"},
      {"binder": "B32", "Kd": "20 ± 7"},
      {"binder": "B33", "Kd": "5.5 ± 0.8"},
      {"binder": "B34", "Kd": "12 ± 3.4"},
      {"binder": "B35", "Kd": "6 ± 0.7"},
      {"binder": "B36", "Kd": "5 ± 0.5"},
      {"binder": "B37", "Kd": "29 ± 4"}
    ]}
  ]
}
